Measured values reported in US20250051474A1, “ANTI-CD97 ANTIBODIES AND ANTIBODY-DRUG CONJUGATES” (New York University, priority 2023, published 2025).

Assays:
[1] = biological target: T1, CD97 (reference without GAIN mutation) expressed on ExpiCHO cells in the mutational study (human, UniProt P48960 21-835); assay: cell-based binding assay: CD97 transiently expressed on ExpiCHO cells, A8 Fab titrated, flow cytometry MFI, 1:1 fit; the same WT curve and value stand in the upper and the lower panel
T1 construct: the whole entry for isoform 1 is named here; also called CD97 GAIN domain
T1 sequence: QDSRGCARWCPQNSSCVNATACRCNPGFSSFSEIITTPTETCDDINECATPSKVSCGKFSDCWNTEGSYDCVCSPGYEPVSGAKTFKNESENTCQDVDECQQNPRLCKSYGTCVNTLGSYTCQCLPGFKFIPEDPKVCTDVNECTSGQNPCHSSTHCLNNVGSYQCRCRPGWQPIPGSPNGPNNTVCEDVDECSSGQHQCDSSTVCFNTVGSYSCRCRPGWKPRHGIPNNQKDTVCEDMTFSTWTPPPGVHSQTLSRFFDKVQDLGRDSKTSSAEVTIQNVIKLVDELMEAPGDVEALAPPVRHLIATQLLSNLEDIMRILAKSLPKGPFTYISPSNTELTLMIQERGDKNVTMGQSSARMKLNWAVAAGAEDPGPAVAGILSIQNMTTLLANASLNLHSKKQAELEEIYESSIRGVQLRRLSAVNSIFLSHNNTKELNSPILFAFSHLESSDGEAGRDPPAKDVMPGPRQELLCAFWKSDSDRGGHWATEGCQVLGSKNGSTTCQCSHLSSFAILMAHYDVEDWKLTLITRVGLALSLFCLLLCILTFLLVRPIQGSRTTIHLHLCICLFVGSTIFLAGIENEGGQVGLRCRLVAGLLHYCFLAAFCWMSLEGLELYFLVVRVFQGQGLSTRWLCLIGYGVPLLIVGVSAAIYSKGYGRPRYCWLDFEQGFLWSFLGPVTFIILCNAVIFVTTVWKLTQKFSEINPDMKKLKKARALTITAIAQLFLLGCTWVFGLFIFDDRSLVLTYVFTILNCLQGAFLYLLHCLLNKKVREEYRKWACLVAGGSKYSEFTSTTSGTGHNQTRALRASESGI

[2] = biological target: T2, CD97 GAIN mutant T351K expressed on ExpiCHO cells (human, UniProt P48960 21-835); assay: cell-based binding assay: CD97 GAIN mutant T351K transiently expressed on ExpiCHO cells, A8 Fab titrated, flow cytometry MFI; lower panel
T2 construct: numbering of isoform 1; whole entry named
T2 sequence: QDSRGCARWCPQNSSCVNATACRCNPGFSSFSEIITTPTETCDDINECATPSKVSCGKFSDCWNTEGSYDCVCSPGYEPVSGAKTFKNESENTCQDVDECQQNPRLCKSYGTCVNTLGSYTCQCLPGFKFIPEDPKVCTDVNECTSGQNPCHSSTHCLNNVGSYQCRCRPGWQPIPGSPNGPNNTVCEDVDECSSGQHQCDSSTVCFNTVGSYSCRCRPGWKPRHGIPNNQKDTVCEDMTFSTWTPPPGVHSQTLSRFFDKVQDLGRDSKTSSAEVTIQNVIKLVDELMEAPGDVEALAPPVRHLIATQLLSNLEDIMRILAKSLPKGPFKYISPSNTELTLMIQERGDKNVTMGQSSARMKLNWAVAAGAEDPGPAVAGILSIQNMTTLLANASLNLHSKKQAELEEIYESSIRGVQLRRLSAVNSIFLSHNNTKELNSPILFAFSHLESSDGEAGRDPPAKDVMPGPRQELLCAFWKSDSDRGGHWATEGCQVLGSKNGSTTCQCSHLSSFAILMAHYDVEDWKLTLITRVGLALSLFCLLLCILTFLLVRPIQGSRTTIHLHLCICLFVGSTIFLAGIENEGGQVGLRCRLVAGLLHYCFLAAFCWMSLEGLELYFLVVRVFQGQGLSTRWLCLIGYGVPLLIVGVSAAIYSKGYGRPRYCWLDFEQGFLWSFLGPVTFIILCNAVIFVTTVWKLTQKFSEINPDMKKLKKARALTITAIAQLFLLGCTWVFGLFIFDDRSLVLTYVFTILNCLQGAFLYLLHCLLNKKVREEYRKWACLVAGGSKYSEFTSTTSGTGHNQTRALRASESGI

K519A = biological target: T3, K519A (human, UniProt P48960); assay: cell-based binding assay: CD97 GAIN mutant transiently expressed on ExpiCHO cells, A8 Fab titrated, flow cytometry MFI, 1:1 fit; upper panel
T3 construct: transiently expressed on the surface of ExpiCHO cells, gated by anti-V5 tag staining; also called CD97 GAIN mutant K519A expressed on ExpiCHO cells
T3 sequence (receptor, looked up): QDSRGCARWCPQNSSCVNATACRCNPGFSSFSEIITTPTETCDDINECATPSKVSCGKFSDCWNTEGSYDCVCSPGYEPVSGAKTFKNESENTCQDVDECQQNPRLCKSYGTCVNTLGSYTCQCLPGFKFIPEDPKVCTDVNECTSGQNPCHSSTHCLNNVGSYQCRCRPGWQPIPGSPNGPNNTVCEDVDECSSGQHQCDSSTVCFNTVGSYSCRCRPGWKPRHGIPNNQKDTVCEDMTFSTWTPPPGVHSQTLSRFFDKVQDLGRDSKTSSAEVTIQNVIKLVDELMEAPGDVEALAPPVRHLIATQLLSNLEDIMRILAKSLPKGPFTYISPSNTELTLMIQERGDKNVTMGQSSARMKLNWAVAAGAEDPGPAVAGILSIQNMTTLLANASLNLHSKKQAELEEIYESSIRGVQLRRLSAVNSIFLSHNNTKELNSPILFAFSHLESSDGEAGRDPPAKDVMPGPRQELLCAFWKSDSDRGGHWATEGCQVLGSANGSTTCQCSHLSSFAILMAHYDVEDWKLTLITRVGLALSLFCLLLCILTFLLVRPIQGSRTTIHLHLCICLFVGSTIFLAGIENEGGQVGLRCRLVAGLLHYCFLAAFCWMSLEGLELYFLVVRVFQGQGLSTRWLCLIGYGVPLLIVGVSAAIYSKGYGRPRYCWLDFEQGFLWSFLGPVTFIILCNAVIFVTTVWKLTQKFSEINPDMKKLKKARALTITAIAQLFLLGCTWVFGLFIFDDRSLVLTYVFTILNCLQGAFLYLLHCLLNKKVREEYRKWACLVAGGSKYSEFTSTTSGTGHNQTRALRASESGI

B1: Antibody clone A8, Fab format (Fab, V domains shown)
VH: EVQLVESGGGLVQPGGSLRLSCAASGFTISSYSIHWVRQAPGKGLEWVASISPYYGSTSYADSVKGRFTISADTSKNTAYLQMNSLRAEDTAVYYCARSWYYYEQNPYWYQKEEQALDYWGQGTLVTVSS
VL: DIQMTQSPSSLSASVGDRVTITCRASQSVSSAVAWYQQKPGKAPKLLIYSASSLYSGVPSRFSGSRSGTDFTLTISSLQPEDFATYYCQQSVYSPVTFGQGTKVEIKR
notes: Fab; also called wild type A8
**Q.** B1 was tested. Which Kd [1] did it give?
**A.** The Kd was 0.045 µM.

**Q.** Does B1 bind [2]?
**A.** Result: no binding (tested: 1000 nM)

**Q.** And the Kd (K519A)?
**A.** The Kd was 0.11 µM.
